Patent US20040063148A1

Tests used:
Bovine brain calmodulin = Bovine brain calmodulin (UniProt P62157)
Gαt-rod peptide = system: T1, Gαt-rod peptide
T1 sequence: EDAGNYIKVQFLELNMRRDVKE

PDE4 of bovine taste tissue (anion exchange fractions 19-23)
cAMP hydrolyzing activity of fractions 19-23, 1 mM CaCl2 and 4 µg/ml CaM (Bovine brain calmodulin): The cAMP hydrolyzing activity of this forth peak is neither Ca^2+/CaM nor Gαt-rod peptide dependent | cAMP hydrolyzing activity of fractions 19-23, 100 µM peptide (Gαt-rod peptide): The cAMP hydrolyzing activity of this forth peak is neither Ca^2+/CaM nor Gαt-rod peptide dependent

PDE1A7 of bovine taste tissue (PDE of anion exchange fractions 6-7)
PDE activity of fraction 6 (1 µM cGMP as substrate), 100 µM peptide (Gαt-rod peptide): The PDE activities of both fractions 6 and 11 are stimulated by the presence of the Gαt-rod peptide

PDE1A1 of bovine taste tissue (PDE of anion exchange fraction 11)
PDE activity of fraction 11 (1 µM cGMP as substrate), 100 µM peptide (Gαt-rod peptide): The PDE activities of both fractions 6 and 11 are stimulated by the presence of the Gαt-rod peptide
